From the supplement of paper PMC7877785
± gives the uncertainty stated by the source.

Assay: self-splicing fitness, log relative to wild type (ln ratio); higher = more splicing; Tetrahymena group I intron in knt gene, E. coli kanamycin selection, DiMSum; sequences stand for … in CUCUCU…GGAGGGAAAAGUUAUCAGGCAUGCACCUGGUAGCUAGUCUUUAAACCAAUAGAUUGCAUCGGUUUAAAAGGCAAGACCGUCAAAUUGCGGGAAAGGGGUCAACAGCCGUUCAGUACCAAGUCUCAGGGGAAACUUUGAGAUGGCCUUGCAAAGGGUAUGGUAAUAAGCUGACGGACAUGGUCCUAACCACGCAGCCAAGUCCUAAGUCAACAGAUCUUCUGUUGAUAUGGAUGCAGUUCACAGACUAAAUGUCGGUCGGGGAAGAUGUAUUCUUCUCAUAAGAUAUAGUCGGACCUCUCCUUAAUGGGAGCUAGCGGAUGAAGUGAUGCAACACUGGAGCCGCUGGGAACUAAUUUGUAUGCGAAAGUAUAUUGAUUAGUUUUGGAGUACUCGUGGUCG
Summary of the method: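 Pooled colonies went to amplicon sequencing on an Illumina HiSeq 2500 after six replicate transformations. The plates were LB agar with 100 μg/mL carbenicillin, 50 μM IPTG and 0.2% rhamnose, with or without 25 μg/mL kanamycin, incubated overnight at 37°C or 30°C. The E. coli BL21(DE3) library had all eight P1ex-region intron nucleotides randomised, the intron placed in the knt kanamycin-resistance gene on pET-22b(+). DiMSum fitness is the error-weighted combination of replicate fold changes, kanamycin against none, normalised to wild type.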

Sequence	self-splicing fitness (ln) (30 °C)	self-splicing fitness (ln) (37 °C)
CCAGAGCAAUAUUACGGUAG	-2.14 ± 0.11	-2.34 ± 0.2
CCAGAGCAAUAUUACGGUAU	-3.47 ± 0.2	-2.75 ± 0.26
CCAGAGCAAUAUUACGGUCC	-3.93 ± 0.33	-1.51 ± 0.34
CCAGAGCAAUAUUACGUAGU	-4.61 ± 0.22	-2.87 ± 0.21
CCAGAGCAAUAUUACGUCAA	-4.08 ± 0.39	-2.3 ± 0.35
CCAGAGCAAUAUUACGUCCU	-4.05 ± 0.22	-2.48 ± 0.25
CCAGAGCAAUAUUACGUCGU	-3.93 ± 0.24	-2.19 ± 0.21
CCAGAGCAAUAUUACGUGGC	-1.95 ± 0.18	-3.77 ± 0.39
CCAGAGCAAUAUUACGUUAA	-4.07 ± 0.37	-2.91 ± 0.29
CCAUAGCAAUAUUACGAAGU	-3.61 ± 0.21	-2.64 ± 0.22
CCAUAGCAAUAUUACGAAUC	-3.22 ± 0.14	-1.38 ± 0.17
CCAUAGCAAUAUUACGACCA	-2.52 ± 0.46	
CCAUAGCAAUAUUACGACCU	-2.92 ± 0.33	-1.28 ± 0.41
CCAUAGCAAUAUUACGACGA	-3.14 ± 0.21	-1.42 ± 0.14
CCAUAGCAAUAUUACGACGC	-2.27 ± 0.26	-2.51 ± 0.39
CCAUAGCAAUAUUACGAGAC	-3.58 ± 0.3	-0.492 ± 0.17
CCAUAGCAAUAUUACGAGAG	-3.57 ± 0.16	-2.56 ± 0.14
CCAUAGCAAUAUUACGAGCG	-0.63 ± 0.095	-2.73e-06 ± 0.12
CCAUAGCAAUAUUACGAUCG	-0.244 ± 0.053	0.361 ± 0.081
CCAUAGCAAUAUUACGCAAU	-3.67 ± 0.15	-2.64 ± 0.15
CCAUAGCAAUAUUACGCAGU	-2.94 ± 0.14	-3.37 ± 0.42

Sequence	self-splicing fitness (ln) (30 °C)	self-splicing fitness (ln) (37 °C)
CCAUAGCAAUAUUACGCCCG	-0.369 ± 0.16	0.418 ± 0.21
CCAUAGCAAUAUUACGCGAC	-3.56 ± 0.13	-2.9 ± 0.18
CCAUAGCAAUAUUACGCUCU	-4.23 ± 0.3	-2.85 ± 0.24
CCAUAGCAAUAUUACGGAAG	-3.19 ± 0.16	-1.67 ± 0.14
CCAUAGCAAUAUUACGGACA	-3.36 ± 0.23	-1.14 ± 0.16
CCAUAGCAAUAUUACGGAGU	-4 ± 0.29	-2.42 ± 0.17
CCAUAGCAAUAUUACGGGGA	-2.97 ± 0.18	-2.68 ± 0.22
CCAUAGCAAUAUUACGGGUC	-3.41 ± 0.35	-2.23 ± 0.23
CCAUAGCAAUAUUACGGUAC	-3.2 ± 0.19	-3.05 ± 0.27
CCAUAGCAAUAUUACGGUGU	-4.24 ± 0.17	-2.58 ± 0.15
CCAUAGCAAUAUUACGGUUU	-4.54 ± 0.25	-2.79 ± 0.21
CCAUAGCAAUAUUACGUAUA	-3.89 ± 0.3	-1.46 ± 0.17
CCAUAGCAAUAUUACGUCAA	-4.82 ± 0.41	-0.857 ± 0.17
CCAUAGCAAUAUUACGUCGC	-3.46 ± 0.22	-3.74 ± 0.31
CCAUAGCAAUAUUACGUGAC	-2.57 ± 0.13	-2.79 ± 0.3
CCAUAGCAAUAUUACGUGCC		-2.41 ± 0.41
CCAUAGCAAUAUUACGUUAC	-2.14 ± 0.17	-3.54 ± 0.47
CCAUAGCAAUAUUACGUUGC	-4.15 ± 0.22	-2.52 ± 0.23
CCCAAGCAAUAUUACGAGAA	-3.57 ± 0.33	-2.87 ± 0.28
CCCAAGCAAUAUUACGAGUA	-4.12 ± 0.18	-2.5 ± 0.14
CCCAAGCAAUAUUACGAUCU	-2.73 ± 0.14	-3.53 ± 0.27
